Source: patent US20260116920A1 (PEPTIDREAM, published 2026)
Starred links: 1 amine or outer side, 2 acyl side, 3 side chain; linkers in the order of their positions; H or OH if unused. Positions of bridges follow the written chain, without caps; N, C: chain ends. Non-standard residues stand in square brackets, D forms with d. Primed or numbered codes have the meaning given here. No end group written: not given here. *: point of attachment. MeF3COO(PEG4Me) = (S)-3-(3-((2,5,8,11-tetraoxatridecan-13-yl)carbamoyl)phenyl)-2-(methylamino)propanoic acid, COCCOCCOCCOCCNC(=O)c1cccc(C[C@@H](C(=O)[*:2])N(C)[*:1])c1; MeF4COO(PEG4Me)″ = N-methyl-4-carboxy-Phe with the carboxyl amidated by a methyl-capped PEG4 amine, COCCOCCOCCOCCNC(=O)c1ccc(C[C@@H](C(=O)[*:2])N(C)[*:1])cc1; F3COO(PEG4Me) = (S)-3-(3-((2,5,8,11-tetraoxatridecan-13-yl)carbamoyl)phenyl)-2-aminopropanoic acid, COCCOCCOCCOCCNC(=O)c1cccc(C[C@H](N[*:1])C(=O)[*:2])c1; F3COO(PEG4Me)″ = 3-carboxy-Phe with the carboxyl amidated by a methyl-capped PEG4 amine, COCCOCCOCCOCCNC(=O)c1cccc(C[C@H](N[*:1])C(=O)[*:2])c1; E(PEG4Me) = (S)-18-amino-15-oxo-2,5,8,11-tetraoxa-14-azanonadecane-19-oic acid, COCCOCCOCCOCCNC(=O)CC[C@H](N[*:1])C(=O)[*:2]; MeF4COO(PEG4Me) = N-methyl Phe with 4-carboxamide to PEG4Me amine, COCCOCCOCCOCCNC(=O)c1ccc(C[C@@H](C(=O)[*:2])N(C)[*:1])cc1; KCOpipzaa = N6-(4-(carboxymethyl)piperazine-1-carbonyl)-L-lysine, O=C(NCCCC[C@H](N[*:1])C(=O)[*:2])N1CCN(CC(=O)[*:3])CC1; Phe(4-OMe)(3) = (S)-2-amino-3-(4-methoxyphenyl)propanoic acid (source code F4OMe), COc1ccc(C[C@H](N[*:1])C(=O)[*:2])cc1; F4aao = (S)-2-amino-3-(4-(carboxymethoxy)phenyl)propanoic acid, O=C([C@H](Cc1ccc(OCC(=O)[*:3])cc1)N[*:1])[*:2]; MePEG4c = K(MePEG4c) = (S)-20-amino-14-oxo-2,5,8,11-tetraoxa-15-azahenicosane-21-oic acid, COCCOCCOCCOCCC(=O)*; Phe(4-OMe) = F4OMe = (S)-2-amino-3-(4-methoxyphenyl)propanoic acid, COc1ccc(C[C@H](N[*:1])C(=O)[*:2])cc1; Trp(1-CH2CO) = O=C([C@H](Cc1cn(CC(=O)[*:3])c2ccccc12)N[*:1])[*:2]; MeF3COO(PEG4Me)″ = N-methyl analogue of F3COO(PEG4Me); Trp(5-Cl) = N[C@@H](Cc1c[nH]c2ccc(Cl)cc12)C(=O)O; Nle(6-morpholino) = N[C@@H](CCCCN1CCOCC1)C(=O)O; Trp(7-aza) = N[C@@H](Cc1c[nH]c2ncccc12)C(=O)O; NMePhe(3-Cl) = CN[C@@H](Cc1cccc(Cl)c1)C(=O)O; NMePhe(4-F) = CN[C@@H](Cc1ccc(F)cc1)C(=O)O; 3Pal(6-NH2) = Nc1ccc(C[C@H](N)C(=O)O)cn1; NMeW = CN[C@@H](Cc1c[nH]c2ccccc12)C(=O)O; NMeY = CN[C@@H](Cc1ccc(O)cc1)C(=O)O; Lys(Me2) = CN(C)CCCC[C@H](N)C(=O)O; NMeR = CN[C@@H](CCCNC(=N)N)C(=O)O; NMeF = CN[C@@H](Cc1ccccc1)C(=O)O; 4Pal = N[C@@H](Cc1ccncc1)C(=O)O

B1: 894_0252 (peptide)
peptide: {CH2CO}-AV[NMeF]V[Trp(5-Cl)]NYYIIR[dR]FYC-NH2
modifications: thioether N-15; not fully specified (residue 14); also: linker PEG4c, place not given here
B2: 849_0418 (peptide)
peptide: {CH2CO}-AV[NMePhe(3-Cl)]V[Trp(7-aza)]NY[F4aao]IIERFYC-NH2
modifications: thioether N-15; not fully specified (residues 11, 14); also: linker PEG4c, place not given here
B3: 894_0260 (peptide)
peptide: {CH2CO}-AV[NMePhe(4-F)]V[NMeW]NYYIIR[dR]FYC-NH2
modifications: thioether N-15; not fully specified (residue 14); also: linker PEG4c, place not given here
B4: 894_0256 (peptide)
peptide: {CH2CO}-AV[NMePhe(4-F)]V[Trp(5-Cl)]NYYIIR[dR]FYC-NH2
modifications: thioether N-15; not fully specified (residue 14); also: linker PEG4c, place not given here

Target: T1, human transferrin receptor (hTfR) (human, UniProt P02786 89-760)
T1 construct: used as 0.5 uM hTfR dimer solution, immobilised on an NTA sensor chip (Ni capture plus EDC/NHS coupling); also called human TfR; TfR1
Assay: SPR; B = KD 1-100 nM
Protocol: NTA sensor chip (Global Life Sciences Technologies Japan K.K.) was inserted into BiacoreT200 (Global Life Sciences Technologies Japan K.K.), then the priming operation was performed three times by using running buffer containing: 10 mM HEPES pH 8.0 (Nacalai Tesque, Inc.), 150 mM NaCl (Nacalai Tesque, Inc.), 0.05% Tween 20 (Nacalai Tesque, Inc.), 0.1% BSA (SIGMA-ALDRICH) and 1.0% DMSO (FUJIFILM Wako Pure Chemical Corporation), and equilibrated at a flow rate of 30 μL/min. 350 mM EDTA solution was reacted at a flow rate of 10 μL/min for 60 seconds, 0.5 mM […] solution (Kishida Chemical Co., Ltd.) was reacted at a flow rate of 10 μL/min for 60 seconds, and then the NTA sensor chip was washed with 3 mM EDTA solution (Nacalai Tesque, Inc.) at a flow rate of 10 μL/min for 60 seconds. After mixing 50 μL each of 60 mM EDC solution (Global Life Science Technologies Japan K.K.) and 650 mM NHS solution (Global Life Science Technologies Japan K.K.), the reaction was carried out at a flow rate of 10 μL/min for 420 seconds. 150 μL of 0.5 μM hTfR dimer solution was prepared by dilution with running buffer and reacted at a flow rate of 10 μL/min for 300 seconds to immobilize hTfR on the NTA sensor chip. For the human transferrin receptor (hTfR), recombinant hTfR described in Example 2 of WO2018/124121 was used. After immobilization, capping was performed by reacting with 1.0 M ethanolamine solution (Global Life Sciences Technologies Japan K.K.) at a flow rate of 10 μL/min for 420 seconds. Peptide lysate prepared in DMSO solution to 10 mM was diluted with running buffer to be a final concentration of 10 μM peptide lysate, then peptide solutions of 100 nM, 50 nM, 25 nM, 10 nM, and 5 nM were prepared. Using the above samples, the kinetics of the peptide against hTfR was obtained by SPR measurement.
The kinetic evaluation model was single-cycle kinetics, and curve fitting was performed using Biacore T200 Evaluation Software Version 3.0 (Global Life Science Technologies Japan K.K.). The binding of the peptide to hTfR was evaluated by performing curve fitting on the obtained sensorgram by least squares method and obtaining the KD value.

T1 sequence (P02786 89-760 limits assumed): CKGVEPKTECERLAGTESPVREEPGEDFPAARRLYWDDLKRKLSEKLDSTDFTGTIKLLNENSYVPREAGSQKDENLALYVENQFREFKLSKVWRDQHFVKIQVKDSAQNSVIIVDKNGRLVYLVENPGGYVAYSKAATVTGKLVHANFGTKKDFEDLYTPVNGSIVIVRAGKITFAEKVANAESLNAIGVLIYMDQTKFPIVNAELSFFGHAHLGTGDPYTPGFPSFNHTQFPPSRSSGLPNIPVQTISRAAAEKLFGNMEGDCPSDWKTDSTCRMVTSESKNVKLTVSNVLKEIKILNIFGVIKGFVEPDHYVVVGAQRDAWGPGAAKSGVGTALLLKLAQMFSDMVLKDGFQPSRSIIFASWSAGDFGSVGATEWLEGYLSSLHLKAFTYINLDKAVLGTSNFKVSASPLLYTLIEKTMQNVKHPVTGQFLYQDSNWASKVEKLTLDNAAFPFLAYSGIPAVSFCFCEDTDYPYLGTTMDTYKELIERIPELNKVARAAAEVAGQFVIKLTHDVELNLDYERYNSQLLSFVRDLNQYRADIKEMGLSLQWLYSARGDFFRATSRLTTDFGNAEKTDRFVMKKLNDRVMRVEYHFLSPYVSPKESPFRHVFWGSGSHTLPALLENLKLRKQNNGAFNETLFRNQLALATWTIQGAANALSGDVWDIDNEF

Row | KD | Binder
1 | 1 to 100 nM | {CH2CO}-AV[NMePhe(3-Cl)]VWNY[Phe(4-OMe)(3)]IIRRF[NMeY]C (thioether N-15; not fully specified (C-terminus)) [894_3149]
2 | 1 to 100 nM | {CH2CO}-AV[NMePhe(3-Cl)]V[Trp(1-CH2CO)]N[3Pal(6-NH2)][F4aao]II[E(PEG4Me)]R[4Pal][NMeY]C-NH2 (thioether N-15; also: linker PEG4c, place not given here) [849_0402]
3 | 1 to 100 nM | {CH2CO}-AV[NMePhe(3-Cl)]VWNY[F4aao]II[E(PEG4Me)]QF[NMeY]C-NH2 (thioether N-15; also: linker PEG4c, attachment site not given here) [849_0408]
4 | 1 to 100 nM | {CH2CO}-AV[NMePhe(3-Cl)]VWNY[F4aao]IIQR[F3COO(PEG4Me)][MeF3COO(PEG4Me)″]C-NH2 (thioether N-15; also: linker G-ds-ds-ds-ds-ds, attachment site not given here) [849_0414]
5 | 1 to 100 nM | {CH2CO}-AV[NMePhe(4-F)]V[Trp(5-Cl)]NYYII[NMeR]K(MePEG4c)FYC-NH2 (thioether N-15; not fully specified (residue 14)) [894_0267]
6 | 1 to 100 nM | B1
7 | 1 to 100 nM | {CH2CO}-AV[NMePhe(3-Cl)]VWNY[F4aao]II[E(PEG4Me)][Lys(Me2)]F[NMeY]C-NH2 (thioether N-15; also: linker PEG4c, attachment site not given here) [849_0407]
8 | 1 to 100 nM | {CH2CO}-AV[NMePhe(3-Cl)]VWNY[F4aao]II[E(PEG4Me)]RF[NMeY]C-NH2 (thioether N-15; also: linker PEG4c, place not given here) [849_0398]
9 | 1 to 100 nM | {CH2CO}-AV[NMePhe(4-F)]V[Trp(5-Cl)]NY[Phe(4-OMe)]II[NMeR]K(MePEG4c)FYC-NH2 (thioether N-15; not fully specified (residue 14)) [894_0268]
10 | 1 to 100 nM | B2
11 | 1 to 100 nM | {CH2CO}-AV[NMePhe(3-Cl)]V[Trp(7-aza)]NY[F4aao]II[E(PEG4Me)]R[F3COO(PEG4Me)][NMeY]C-NH2 (thioether N-15; also: linker PEG4c, attachment site not given here) [849_0415]
12 | 1 to 100 nM | {CH2CO}-AV[NMeF]VWNYYIIRK(MePEG4c)FYC-NH2 (thioether N-15; not fully specified (residue 14)) [894_0264]
13 | 1 to 100 nM | {CH2CO}-AV[NMePhe(3-Cl)]VWNY[F4aao]II[E(PEG4Me)][KCOpipzaa]F[NMeY]C-NH2 (thioether N-15; also: linker PEG4c, place not given here) [849_0401]
14 | 1 to 100 nM | {CH2CO}-AV[NMePhe(3-Cl)]VWNY[F4aao]II[E(PEG4Me)]KF[NMeY]C-NH2 (thioether N-15; also: linker PEG4c, attachment site not given here) [849_0406]
15 | 1 to 100 nM | {CH2CO}-AV[NMePhe(3-Cl)]V[Trp(7-aza)]NY[F4aao]IIQR[F3COO(PEG4Me)][MeF3COO(PEG4Me)″]C-NH2 (thioether N-15; also: linker PEG4c, place not given here) [849_0417]
16 | 1 to 100 nM | {CH2CO}-AV[NMePhe(3-Cl)]VWNY[F4aao]II[E(PEG4Me)]R[E(PEG4Me)][NMeY]C-NH2 (thioether N-15; also: linker PEG4c, attachment site not given here) [849_0409]
17 | 1 to 100 nM | {CH2CO}-AV[NMePhe(3-Cl)]V[Trp(7-aza)]NY[F4aao]IIQR[F3COO(PEG4Me)][MeF4COO(PEG4Me)]C-NH2 (thioether N-15; also: linker PEG4c, attachment site not given here, also called 894_0416) [849_0416]
18 | 1 to 100 nM | {CH2CO}-AV[NMePhe(3-Cl)]VWNY[F4aao]II[E(PEG4Me)][Nle(6-morpholino)]F[NMeY]C-NH2 (thioether N-15; also: linker PEG4c, attachment site not given here) [849_0405]
19 | 1 to 100 nM | {CH2CO}-AV[NMeF]VWNYYIIK(MePEG4c)RFYC-NH2 (thioether N-15; not fully specified (residue 14)) [894_0263]
20 | 1 to 100 nM | {CH2CO}-AV[NMePhe(3-Cl)]VWNY[F4aao]IIQR[F3COO(PEG4Me)″][MeF3COO(PEG4Me)]C-NH2 (thioether N-15; also: linker PEG4c, attachment site not given here) [849_0413]
21 | 1 to 100 nM | {CH2CO}-AV[NMePhe(3-Cl)]VWN[3Pal(6-NH2)][F4aao]II[E(PEG4Me)][KCOpipzaa][4Pal][NMeY]C-NH2 (thioether N-15; also: linker PEG4c, attachment site not given here) [849_0403]
22 | 1 to 100 nM | {CH2CO}-AV[NMePhe(3-Cl)]VWNY[F4aao]II[E(PEG4Me)]R[F3COO(PEG4Me)″][NMeY]C-NH2 (thioether N-15; also: linker PEG4c, attachment site not given here) [849_0411]
23 | 1 to 100 nM | B3
24 | 1 to 100 nM | {CH2CO}-AV[NMePhe(3-Cl)]V[Trp(1-CH2CO)]NY[F4aao]II[E(PEG4Me)][KCOpipzaa]F[NMeY]C-NH2 (thioether N-15; also: linker PEG4c, place not given here) [849_0400]
25 | 1 to 100 nM | B4
26 | 1 to 100 nM | {CH2CO}-AV[NMePhe(3-Cl)]VWNY[F4aao]IIQR[F3COO(PEG4Me)″][MeF4COO(PEG4Me)″]C-NH2 (thioether N-15; also: linker PEG4c, attachment site not given here) [849_0412]
27 | 1 to 100 nM | {CH2CO}-AV[NMePhe(3-Cl)]VWNY[F4aao]II[E(PEG4Me)]R[E(PEG4Me)][NMeY]C-NH2 (thioether N-15; also: linker G-ds-ds-ds-ds-ds, attachment site not given here) [849_0410]
